Legend:
[1] = target: spinophilin (GST fusion fragments) 1-300 (UniProt O35274); test: GST pull-down from striatal extract; details: reference: wild-type mice; sites T286
spinophilin (striatal) = spinophilin (striatal) (UniProt Q6R891); test: co-IP with spinophilin antibody, striatal extract; details: reference: wild-type mice; sites T286
[2] = target: spinophilin, endogenous in mouse striatal TSF (mouse (endogenous in striatum)) (UniProt Q6R891); test: co-IP; spinophilin immunoprecipitated with 4 µg goat spinophilin antibody from mouse striatal TSFs (WT or T286A-KI; PND21 or adult); immunoblot

Chain of UniProt Q6R891 (Q6R891 whole entry): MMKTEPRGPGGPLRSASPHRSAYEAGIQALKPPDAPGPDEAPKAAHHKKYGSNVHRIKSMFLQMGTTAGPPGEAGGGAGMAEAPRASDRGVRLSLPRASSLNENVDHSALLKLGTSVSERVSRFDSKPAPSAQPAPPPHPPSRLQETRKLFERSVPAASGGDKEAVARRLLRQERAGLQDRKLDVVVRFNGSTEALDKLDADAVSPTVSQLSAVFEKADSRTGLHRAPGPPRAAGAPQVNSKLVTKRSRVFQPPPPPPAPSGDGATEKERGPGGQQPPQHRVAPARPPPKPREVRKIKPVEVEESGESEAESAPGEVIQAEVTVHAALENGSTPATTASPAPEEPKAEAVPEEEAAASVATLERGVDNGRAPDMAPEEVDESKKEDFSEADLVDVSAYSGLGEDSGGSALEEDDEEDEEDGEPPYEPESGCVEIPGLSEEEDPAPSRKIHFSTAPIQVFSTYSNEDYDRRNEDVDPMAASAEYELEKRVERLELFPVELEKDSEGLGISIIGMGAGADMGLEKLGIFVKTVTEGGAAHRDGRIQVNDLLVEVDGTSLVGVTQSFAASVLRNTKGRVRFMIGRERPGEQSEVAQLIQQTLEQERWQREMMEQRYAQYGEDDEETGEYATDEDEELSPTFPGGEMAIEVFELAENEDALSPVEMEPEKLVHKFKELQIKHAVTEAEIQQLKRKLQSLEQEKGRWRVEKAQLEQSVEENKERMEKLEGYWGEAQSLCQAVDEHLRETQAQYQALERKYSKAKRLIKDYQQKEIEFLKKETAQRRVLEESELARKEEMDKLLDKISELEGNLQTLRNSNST

Row | binding against the reference [1] | other: reduction relative to wild type (spinophilin (striatal)) | reduction of CaMKIIα in spinophilin immune complexes, T286A-KI against WT [2] | Substance
1 | weaker | weaker | – | CaMKIIα (from UniProt P11798) T286A knock-in mice
2 | – | – | 50% | CaMKIIα T286A, endogenous in T286A-KI mouse striatum (from UniProt P11798 1-478) (enzyme)
